# Measured values taken from paper PMC4864350, “Fluorogenic Substrates for In Situ Monitoring of Caspase-3 Activity in Live Cells” (PLoS ONE, 2016).
# Non-standard residues stand in square brackets, D forms with d. *: point of attachment. MethylRed = CN(C)c1ccc(/N=N/c2ccccc2C(=O)*)cc1; FAM = 5(6)-carboxyfluorescein; peptoid = not defined here; Ahx = NCCCCCC(=O)O
# How the values were obtained:
# caspase-3 [1] = biological target: T1, caspase-3 (Homo sapiens, UniProt P42574); test: Kinetic assay of fluorogenic substrates with caspase-3; type: biochemical; settings: substrate range 0.1–8 μM, enzyme 20 nM (1–9) or 15 nM (10–14), n = 3; for Km: fluorescence λEx/Em 485/528 nm, initial rate 0–5 min, Michaelis-Menten
# T1 construct: purchased R&D systems, USA
# T1 sequence (P42574 29-175 limits assumed): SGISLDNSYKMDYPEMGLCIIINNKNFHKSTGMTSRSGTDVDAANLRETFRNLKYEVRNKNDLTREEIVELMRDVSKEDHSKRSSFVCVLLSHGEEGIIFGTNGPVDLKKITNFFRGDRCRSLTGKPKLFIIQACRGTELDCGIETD
# T1 sequence (P42574 176-277 limits assumed): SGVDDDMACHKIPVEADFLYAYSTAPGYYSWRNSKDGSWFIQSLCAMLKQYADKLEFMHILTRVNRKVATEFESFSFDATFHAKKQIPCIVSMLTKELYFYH
# Procedure: (§1) The ability of […] (bearing MR as the quencher of choice) to act as s substrate for caspase-3, as well as caspase-7, was investigated by determining the catalytic efficiency (kcat/KM) for each substrate with both enzymes (Table 2).
# (§2) Caspase-3 or caspase-7 (R&D systems, USA) was added to 100 μL of caspase assay buffer with substrates 1–14 at concentrations from 0.1 μM to 8 μM in a 96-well plate (n = 3) to give final enzyme concentration of 20 nM (1–9) or 15 nM (10–14). Fluorescence (λEx/Em 485/528 nm) was recorded on a Biotek Synergy HT Multi-Mode Microplate Reader every 2 min. Control samples had the same composition but no enzyme. The rate (μM/min) was calibrated using a 5(6)-carboxyfluorescein conversion factor (0.0055 μM/RFU) and data plotted against time (min). For initial cleavage rate (0–5 min), plots were fitted using linear regression analysis and the Michaelis-Menten data generated using GraphPad Prism 5.
# caspase-7 [2] = biological target: T2, caspase-7 (Homo sapiens, UniProt P55210); test: Kinetic assay of fluorogenic substrates with caspase-7; type: biochemical; settings: substrate range 0.1–8 μM; enzyme 20 nM (1–9) or 15 nM (10–14); n = 3
# T2 construct: purchased R&D systems, USA
# T2 sequence (P55210 24-198 limits assumed): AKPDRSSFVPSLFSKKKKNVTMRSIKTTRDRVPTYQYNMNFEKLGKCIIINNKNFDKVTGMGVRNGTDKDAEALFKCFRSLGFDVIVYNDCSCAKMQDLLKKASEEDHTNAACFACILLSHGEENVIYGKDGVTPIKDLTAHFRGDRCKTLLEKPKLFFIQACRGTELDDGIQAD
# T2 sequence (P55210 207-303 limits assumed): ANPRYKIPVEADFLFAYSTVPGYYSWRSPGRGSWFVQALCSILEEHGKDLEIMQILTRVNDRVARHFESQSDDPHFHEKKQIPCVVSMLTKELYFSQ
# Procedure: as §1, §2
# caspase-7 [3] = biological target: T2, caspase-7; test: Caspase-7-mediated cleavage at high enzyme concentration analysed by MALDI-TOF MS; type: biochemical; settings: 10–20 μM substrate, 0.4 μM enzyme, 2 h; for cleavage by caspase-7 (MALDI-TOF MS): 37 °C; for cleavage site with caspase-7: MALDI-TOF MS
# Procedure: (§3) To confirm how specific 11, 12 and 14 were for caspase-3, these substrates were incubated with high enzyme concentrations (10–20 μM substrate, 0.4 μM enzyme) and the caspase-mediated cleavage analysed by MALDI-TOF MS.
# (§4) S2 Fig. (A) MALDI-TOF MS spectra of substrate 11 (sequence Asp-Ala-Pro-Asp). (B) After incubation (20 µM) with Caspase-3 for 2 h. (C) After incubation (20 µM) with Caspase-7 for 2 h (detected as the PBS adduct.)
# (§5) Caspase-3 or caspase-7 (R&D systems, USA) was added to 100 µL of caspase assay buffer (final enzyme concentration 0.4 µM) with the substrates at 10–20 µM. The samples were incubated in Eppendorf Thermomixer® Comfort shaking at 1200 rpm for 2h at 37 °C. MALDI -TOF mass spectra were recorded as described in Table S1 .
# (§6) (1 picture or pasted object on this page, not shown here)
# caspase-3 [4] = biological target: T1, caspase-3; test: Caspase-3-mediated cleavage at high enzyme concentration analysed by MALDI-TOF MS; type: biochemical; settings: 10–20 μM substrate, 0.4 μM enzyme; for cleavage by caspase-3 (MALDI-TOF MS): 2 h, 37 °C; for parent compound after incubation with caspase-3: after 2h, MALDI-TOF MS
# Procedure: as §3, §4, §5, §6
# caspase-3 [5] = biological target: T3, caspase-3 (UniProt P42574)
# T3 sequence: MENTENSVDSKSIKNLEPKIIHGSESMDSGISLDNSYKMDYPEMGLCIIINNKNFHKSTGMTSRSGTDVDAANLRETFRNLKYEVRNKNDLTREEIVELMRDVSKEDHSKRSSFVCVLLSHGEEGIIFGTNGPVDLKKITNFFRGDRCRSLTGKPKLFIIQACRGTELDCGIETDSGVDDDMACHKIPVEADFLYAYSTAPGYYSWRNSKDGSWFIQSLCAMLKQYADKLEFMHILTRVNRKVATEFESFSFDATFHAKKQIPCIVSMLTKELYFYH
# caspase-3 [6] = biological target: T3, caspase-3; remark: listed apart in the source
molecule,measurement,setting,value
"substrate 12: FRET fluorogenic substrate, recognition Asp-Leu-Pro-Asp, quencher MR, C-terminal peptoid ({FAM-Ahx}-DLPD[Ahx]K(MethylRed)-{peptoid-NH2}; reading uncertain; also: printed as Asp-Leu-Pro-Asp)",Km,caspase-3 [1],0.2 ± 0.1 µM
same,"Kcat, Caspase-3",caspase-3 [1],0.0233 ± 0.0033 s⁻¹
same,"kcat/KM (catalytic efficiency), Caspase-3",caspase-3 [1]; listed as 12,96700 M⁻¹ s⁻¹
same,Km,caspase-7 [2],1.4 ± 0.3 µM
same,"kcat, Caspase-7",caspase-7 [2],0.015 ± 0.0012 s⁻¹
same,"kcat/KM, Caspase-7",caspase-7 [2],12000 M⁻¹ s⁻¹
same,cleavage by caspase-7 (MALDI-TOF MS),caspase-7 [3],(partially) cleaved by caspase-7
same,cleavage site with caspase-7,caspase-7 [3],between the Ahx spacer and the Lys(MR)
same,cleavage by caspase-3 (MALDI-TOF MS),caspase-3 [4],cleaved by caspase-3 at the X1 position
same,parent compound after incubation with caspase-3,caspase-3 [4],no longer detected
"substrate 11: FRET fluorogenic substrate, recognition Asp-Ala-Pro-Asp, quencher MR, C-terminal peptoid ({FAM-Ahx}-DAPD[Ahx]K(MethylRed)-{peptoid-NH2}; reading uncertain; also: printed as Asp-Ala-Pro-Asp)",Km,caspase-3 [1],0.4 ± 0.1 µM
same,"Kcat, Caspase-3",caspase-3 [1],0.0217 ± 0.0017 s⁻¹
same,"kcat/KM (catalytic efficiency), Caspase-3",caspase-3 [1]; listed as 11,56700 M⁻¹ s⁻¹
same,Km,caspase-7 [2],4.9 ± 2.1 µM
same,"kcat, Caspase-7",caspase-7 [2],0.0267 ± 0.005 s⁻¹
same,"kcat/KM, Caspase-7",caspase-7 [2],5000 M⁻¹ s⁻¹
same,cleavage by caspase-7 (MALDI-TOF MS),caspase-7 [3],(partially) cleaved by caspase-7
same,cleavage site with caspase-7,caspase-7 [3],between the Ahx spacer and the Lys(MR)
same,cleavage by caspase-3 (MALDI-TOF MS),caspase-3 [4],cleaved by caspase-3 at the X1 position
same,parent compound after incubation with caspase-3,caspase-3 [4],no longer detected
"substrate 14: FRET fluorogenic substrate, recognition Asp-Val-Pro-Asp, quencher MR, C-terminal peptoid ({FAM-Ahx}-DVPD[Ahx]K(MethylRed)-{peptoid-NH2}; reading uncertain; also: printed as Asp-Val-Pro-Asp)",Km,caspase-3 [1],0.2 ± 0.04 µM
same,"Kcat, Caspase-3",caspase-3 [1],0.0283 ± 0.0017 s⁻¹
same,Km,caspase-7 [2],3.6 ± 0.9 µM
same,"kcat, Caspase-7",caspase-7 [2],0.0233 ± 0.0033 s⁻¹
same,"kcat/KM, Caspase-7",caspase-7 [2],6700 M⁻¹ s⁻¹
same,cleavage by caspase-7 (MALDI-TOF MS),caspase-7 [3],(partially) cleaved by caspase-7
same,cleavage site with caspase-7,caspase-7 [3],between the Ahx spacer and the Lys(MR)
same,cleavage by caspase-3 (MALDI-TOF MS),caspase-3 [4],cleaved by caspase-3 at the X1 position
same,parent compound after incubation with caspase-3,caspase-3 [4],no longer detected
{FAM-Ahx}-DAPD[Ahx]K(MethylRed)-{peptoid-NH2} (reading uncertain; also: printed as Asp-Ala-Pro-Asp) [fluorogenic substrate 11 (FAM-Ahx-Asp-Ala-Pro-Asp-Ahx-Lys(MR)-peptoid)],"KM of cleavage by caspase-3 (fluorogenic Michaelis-Menten kinetics, substrate 0.1-8 μM, 15 nM enzyme)",caspase-3 [5],0.4 µM
{FAM-Ahx}-DLPD[Ahx]K(MethylRed)-{peptoid-NH2} (reading uncertain; also: printed as FAM-Ahx-Asp-Leu-Pro-Asp-Ahx-Lys(MR)-peptoid) [fluorogenic substrate 12 (FAM-Ahx-Asp-Leu-Pro-Asp-Ahx-Lys(MR)-peptoid)],"KM of cleavage by caspase-3 (fluorogenic Michaelis-Menten kinetics, substrate 0.1-8 μM, 15 nM enzyme)",caspase-3 [5],0.2 µM
{FAM-Ahx}-DVPD[Ahx]K(MethylRed)-{peptoid-NH2} (reading uncertain; also: printed as Asp-Val-Pro-Asp) [fluorogenic substrate 14 (FAM-Ahx-Asp-Val-Pro-Asp-Ahx-Lys(MR)-peptoid)],"KM of cleavage by caspase-3 (fluorogenic Michaelis-Menten kinetics, substrate 0.1-8 μM, 15 nM enzyme)",caspase-3 [5],0.2 µM
{FAM-Ahx}-DLPDK(MethylRed)-{Ahx-peptoid} (reading uncertain; also: printed as FAM-Ahx-Asp-Leu-Pro-Asp-Lys(MR)-Ahx-peptoid) [fluorogenic substrate 27 (FAM-Ahx-Asp-Leu-Pro-Asp-Lys(MR)-Ahx-peptoid)],KM of cleavage by caspase-3 (fluorogenic Michaelis-Menten kinetics),caspase-3 [6],1.1 µM
